Substitutions are numbered along the chain they refer to.
T1: Recombinant human IL-18 (human, UniProt Q14116 37-193)
T1 sequence: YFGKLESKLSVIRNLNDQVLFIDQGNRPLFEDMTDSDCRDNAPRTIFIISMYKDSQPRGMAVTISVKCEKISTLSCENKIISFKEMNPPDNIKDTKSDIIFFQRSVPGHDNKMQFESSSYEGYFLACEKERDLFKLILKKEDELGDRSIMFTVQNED

T2: Recombinant cynomolgus IL-18 (cynomolgus monkey, UniProt Q14116 37-193 (human entry))
T2 chain: T1 sequence with V11I, S50N, T63A, K79R, F134Y, E141K

T3: Native human IL-18 (human, UniProt Q14116 37-193)
T3 sequence: T1 sequence

B1: MOR10579 (antibody, human IgG1, lambda, L234A L235A, V domains shown)
VH: EVQLVQSGAEVKKPGSSVKVSCKASGGTFNSYAISWVRQAPGQGLEWMGWINPFYIGETFYAQKFQGRVTITADESTSTAYMELSSLRSEDTAVYYCARAAYHPLVFDNWGQGTLVTVSS
VL: QSVLTQPPSASGTPGQRVTISCSGSSSNIGNHYVNWYQQLPGTAPKLLIYRNNHRPSGVPDRFSGSKSGTSASLAISGLQSEDEADYYCQSWDYSGFSTVFGGGTKLTVLG
B2: MOR10222 (antibody, human IgG1, lambda, L234A L235A, V domains shown)
VH: EVQLVQSGAEVKKPGSSVKVSCKASGGTFNSYAISWVRQAPGQGLEWMGNIIPMTGQTYYAQKFQGRVTITADESTSTAYMELSSLRSEDTAVYYCARAAYHPLVFDNWGQGTLVTVSS
VL: B1 VL
B3: Recombinant human IL-18 Binding Protein-IgG1 Fc (Fc fusion, UniProt O95998 31-194, looked up, not shown: a dimerising Fc or GST)
chain: TPVSQTTTAATASVRSTKDPCPSQPPVFPAAKQCPALEVTWPEVEVPLNGTLSLSCVACSRFPNFSILYWLGNGSFIEHLPGRLWEGSTSRERGSTGTQLCKALVLEQLTPALHSTNFSCVLVDPEQVVQRHVVLAQLWAGLRATLPPTQEALPSSHSSPQQQG
B4: MOR13342 (antibody, human IgG1, kappa, L234A L235A, V domains shown)
VH: QVQLVQSGAEVKKPGSSVKVSCKASGGTFSTFSISWVRQAPGQGLEWMGGIIPIFGTANYAQKFQGRVTITADESTSTAYMELSSLRSEDTAVYYCARGGYGGYYYFDYWGQGTLVTVSS
VL: DIQMTQSPSSLSASVGDRVTITCRASQSISNRLNWYQQKPGKAPKLLIYKGSTLQSGVPSRFSGSGSGTDFTLTISSLQPEDFATYYCQQHYVWSTTFGQGTKVEIKR
B5: MOR13347 (antibody, human IgG1, kappa, L234A L235A, V domains shown)
VH: B4 VH
VL: B4 VL with V93Q, S95L
B6: MOR10222_E1Q_N30S (antibody, human IgG1, lambda, L234A L235A, V domains shown)
VH: B2 VH with E1Q, N30S
VL: B1 VL
B7: MOR10222_E1Q_N30S_M54Y (antibody, human IgG1, lambda, L234A L235A, V domains shown)
VH: B2 VH with E1Q, N30S, M54Y
VL: B1 VL
B8: MOR10222_E1Q_N30S_M54N (antibody, human IgG1, lambda, L234A L235A, V domains shown)
VH: B2 VH with E1Q, N30S, M54N
VL: B1 VL
B9: MOR9464_N30T (antibody, human IgG1, lambda, L234A L235A, V domains shown)
VH: B2 VH with N30T
VL: B1 VL with Q1D, S2I, A10V, T13A, S77T
B10: MOR9464_N30E (antibody, human IgG1, lambda, L234A L235A, V domains shown)
VH: B2 VH with N30E
VL: B1 VL with Q1D, S2I, A10V, T13A, S77T
B11: MOR9464_N30H (antibody, human IgG1, lambda, L234A L235A, V domains shown)
VH: B2 VH with N30H
VL: B1 VL with Q1D, S2I, A10V, T13A, S77T
B12: MOR9464_N30Q (antibody, human IgG1, lambda, L234A L235A, V domains shown)
VH: B2 VH with N30Q
VL: B1 VL with Q1D, S2I, A10V, T13A, S77T
B13: MOR9464_N30G (antibody, human IgG1, lambda, L234A L235A, V domains shown)
VH: B2 VH with N30G
VL: B1 VL with Q1D, S2I, A10V, T13A, S77T
B14: MOR9464_N30V (antibody, human IgG1, lambda, L234A L235A, V domains shown)
VH: B2 VH with N30V
VL: B1 VL with Q1D, S2I, A10V, T13A, S77T
B15: MOR9464_N30Y (antibody, human IgG1, lambda, L234A L235A, V domains shown)
VH: B2 VH with N30Y
VL: B1 VL with Q1D, S2I, A10V, T13A, S77T
B16: MOR9464_N30R (antibody, human IgG1, lambda, L234A L235A, V domains shown)
VH: B2 VH with N30R
VL: B1 VL with Q1D, S2I, A10V, T13A, S77T
B17: MOR9464_N30I (antibody, human IgG1, lambda, L234A L235A, V domains shown)
VH: B2 VH with N30I
VL: B1 VL with Q1D, S2I, A10V, T13A, S77T
B18: MOR9464_N30L (antibody, human IgG1, lambda, L234A L235A, V domains shown)
VH: B2 VH with N30L
VL: B1 VL with Q1D, S2I, A10V, T13A, S77T

What follows are binders tested against T1, Recombinant human IL-18 (assay: cell-based or functional assay).

Binder	IC50, inhibition of IFN-γ release, KG-1 cells, Hu IL-18 (1 nM)	IC50, inhibition of IFN-γ release, PBMC, Hu IL-18 (recombinant)	IC50, inhibition of IFN-γ release, KG-1 cells, Hu IL-18 (0.5 nM)
B1	0.8 nM	1.9 nM	–
B2	0.7 nM	2.3 nM	–
B3	0.3 nM	1 nM	–
B4	–	–	0.11 nM
B5	–	–	0.12 nM

Molecular target: T2, Recombinant cynomolgus IL-18
Assay: cell-based or functional assay

Binder	IC50, inhibition of IFN-γ release, KG-1 cells, Cyno IL-18	IC50, inhibition of IFN-γ release, KG-1 cells, Cyno IL-18 (0.2 nM)
B1	9.8 nM	–
B2	6.6 nM	–
B3	0.4 nM	–
B4	–	2.9 nM
B5	–	2.8 nM

These binders were tested against T3, Native human IL-18 (assay: cell-based or functional assay).

Binder	IC50, inhibition of IFN-γ release, PBMC, Native IL-18 (LPS/IL-12)
B1	0.3 nM
B2	0.22 nM
B3	0.17 nM
B4	0.5 nM
B5	0.5 nM

Molecular target: T1, Recombinant human IL-18
Assay: cell-based or functional assay
Remark: another data set of the same source

Binder	IC50, inhibition of IFN-γ release, KG-1 cells, Hu IL-18 (1 nM)
B6	3.3 nM
B7	4.8 nM
B8	5.2 nM
B9	0.31 nM
B10	0.49 nM
B11	0.23 nM
B12	0.22 nM
B13	0.54 nM
B14	0.29 nM
B15	0.23 nM
B16	0.47 nM
B17	0.32 nM
B18	0.23 nM

Molecular target: T3, Native human IL-18
Assay: cell-based or functional assay
Remark: another data set of the same source

Binder	IC50, inhibition of IFN-γ release, PBMC, Native IL-18 (LPS/IL-12)
B6	0.05 nM
B7	0.09 nM
B8	0.03 nM
B9	0.19 nM
B10	0.13 nM
B11	0.1 nM
B12	0.07 nM
B13	0.11 nM
B14	0.11 nM
B15	0.03 nM
B16	0.04 nM
B17	0.11 nM
B18	0.05 nM

Molecular target: T1, Recombinant human IL-18
Assay: cell-based or functional assay
Remark: another data set of the same source

Binder	IC50, inhibition of IFN-γ release, human whole blood, recombinant human IL-18 (7 nM)
B1	5.6 nM
B2	4.7 nM
B3	5.7 nM
B4	6.6 nM
B5	3.5 nM
B6	58.4 nM
B7	34.3 nM
B8	46.5 nM
B9	12.5 nM
B10	12.9 nM
B11	11.9 nM
B12	8.1 nM
B13	25.1 nM
B14	12.7 nM
B15	12.4 nM
B16	10.1 nM
B17	11.4 nM
B18	9.85 nM

Molecular target: T3, Native human IL-18
Assay: cell-based or functional assay
Remark: another data set of the same source

Binder	IC50, inhibition of IFN-γ release, human whole blood, LPS/IL-12 (native IL-18)
B1	16.7 nM
B2	21.6 nM
B3	12.1 nM
B4	21.5 nM
B5	8.3 nM
B6	16.9 nM
B7	18.8 nM
B8	16.1 nM
B9	20.8 nM
B10	19.2 nM
B11	23 nM
B12	13.4 nM
B13	15.1 nM
B14	19.6 nM
B15	17.9 nM
B16	11 nM
B17	13.2 nM
B18	15.5 nM

Reference: patent US20140112915A1 (Novartis, published 2014)
